From the Immune Epitope Database (IEDB)

What was measured:
Assay in all cases: IEDB peptide-MHC binding, purified MHC/competitive/radioactivity; ≥ and ≤ were set here for values at or beyond the usual limits of such assays
Settings in all cases: source organism: Bordetella pertussis
HLA-B*57:01 = molecular target: HLA-B*57:01
HLA-B*35:01 = molecular target: HLA-B*35:01
HLA-B*53:01 = molecular target: HLA-B*53:01
HLA-A*02:01 = molecular target: HLA-A*02:01
HLA-B*07:02 = molecular target: HLA-B*07:02
HLA-B*44:03 = molecular target: HLA-B*44:03

RSRVRALAW
IC50 (HLA-B*57:01): 0.0121 µM

QAAPLSITL
IC50 (HLA-B*35:01): 4.46 µM | IC50 (HLA-B*53:01): 4.49 µM

TSKQDERNY
IC50 (HLA-B*57:01): ≥ 70.4 µM

FQTYALTGI
IC50 (HLA-A*02:01): 1.32 µM

LPSIPGTSI
IC50 (HLA-B*07:02): 0.116 µM

NPGSLIAEV
IC50 (HLA-B*53:01): 58.7 µM

VGGGEHGRW
IC50 (HLA-B*57:01): 57.9 µM

TAFMSGRSL
IC50 (HLA-B*07:02): 56.1 µM

YEAGFSLGS
IC50 (HLA-B*44:03): 35.4 µM

DGPPSRPTT
IC50 (HLA-B*44:03): ≥ 70.1 µM

PAVALPRPL
IC50 (HLA-B*07:02): ≥ 77.5 µM
